Data published in PMC11493271, “The N-terminal activation function AF-1 domain of ERα interacts directly with the C-terminal AF-2-holding ligand-binding domain to recruit the coactivator proteins” (PLOS ONE, 2024).
Entries after “also recorded” stand apart in the source; their conditions may differ.

T1: full-length ERα (Homo sapiens, UniProt P03372)
T1 construct: […]; host or cells: HeLa cells
T1 sequence (P03372 1-595): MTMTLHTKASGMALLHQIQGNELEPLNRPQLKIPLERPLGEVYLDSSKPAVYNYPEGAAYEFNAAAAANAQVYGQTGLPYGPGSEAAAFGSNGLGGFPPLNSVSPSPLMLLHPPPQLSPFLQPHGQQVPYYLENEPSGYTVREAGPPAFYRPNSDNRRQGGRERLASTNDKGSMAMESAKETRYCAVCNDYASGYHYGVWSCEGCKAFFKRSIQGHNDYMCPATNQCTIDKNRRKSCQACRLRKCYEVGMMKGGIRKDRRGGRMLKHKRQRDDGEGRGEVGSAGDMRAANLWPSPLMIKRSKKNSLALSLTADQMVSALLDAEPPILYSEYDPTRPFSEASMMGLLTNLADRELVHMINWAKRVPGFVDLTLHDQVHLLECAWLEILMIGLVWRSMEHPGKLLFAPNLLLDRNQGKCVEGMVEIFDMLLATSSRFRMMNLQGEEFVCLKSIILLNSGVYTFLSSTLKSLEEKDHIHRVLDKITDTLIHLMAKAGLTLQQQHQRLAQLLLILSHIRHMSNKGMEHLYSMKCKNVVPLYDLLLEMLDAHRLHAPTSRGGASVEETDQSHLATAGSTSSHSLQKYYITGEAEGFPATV

T2: desNTD(AF-1)-ERα (Homo sapiens, UniProt P03372)
T2 sequence (P03372 181-595): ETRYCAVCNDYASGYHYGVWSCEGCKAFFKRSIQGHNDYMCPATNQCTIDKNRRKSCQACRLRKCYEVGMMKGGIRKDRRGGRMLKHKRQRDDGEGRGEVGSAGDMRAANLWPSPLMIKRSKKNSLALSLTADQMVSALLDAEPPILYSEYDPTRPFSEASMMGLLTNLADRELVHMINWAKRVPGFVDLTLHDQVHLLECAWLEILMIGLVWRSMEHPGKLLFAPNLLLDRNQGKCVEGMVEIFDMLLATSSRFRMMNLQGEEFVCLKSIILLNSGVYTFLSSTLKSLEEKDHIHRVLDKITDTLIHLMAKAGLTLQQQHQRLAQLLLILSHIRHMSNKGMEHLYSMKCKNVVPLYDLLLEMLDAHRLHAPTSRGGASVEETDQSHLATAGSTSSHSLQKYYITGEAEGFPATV


Assays:
[1] = target: desNTD(AF-1)-ERα, ERα C-terminal fragment with amino acid residues 181-595 (human) (UniProt P03372)
[2] = target: full-length estrogen receptor alpha (ERα), wild type (1-595) (human) (UniProt P03372)
[3] = target: full-length estrogen receptor alpha (ERα), wild type (1-595) (human) (UniProt P03372); remark: listed apart in the source
full-length ERα = target: T1, full-length ERα; experiment: ERα-NTD(AF-1) inhibition assay: co-expression with full-length ERα, luciferase reporter gene assay in HeLa cells; format: cell-based; settings: for effect on transcription activity of full-length ERα: plasmid 0.01–2.00 μg/well with full-length ERα 0.05 μg/well, E2 0.1, 1 or 50 nM, Fig 3
Procedure: Other expression plasmids were used in fixed amounts: full-length ERα/pcDNA3.1 (0.05 μg/well), 3 × ERE/pGL3 (0.15 μg/well), and pGL4.74 (0.05 μg/well) (Table 1).
Gene transfections followed by luciferase reporter gene assays were carried out basically as described above.
Thus, each distinct maximal activity was evaluated precisely as a percentage.

[4] = system: 3 × ERE/pGL3 luciferase reporter; experiment: Transcription activity of truncated ERα derivatives in the luciferase reporter gene assay (HeLa cells); settings: plasmid 250 ng/well
Procedure: (§1) The luciferase reporter gene assays were carried out exactly as described above.

desNTD(AF-1)-ERα = target: T2, desNTD(AF-1)-ERα; experiment: Luciferase reporter gene assay for desNTD(AF-1)-ERα, alone or co-expressed with ERα-NTD(AF-1), in HeLa cells
Procedure: as §1

Molecule | luciferase reporter gene assay in HeLa cells: apparent IC50 of the ERα-NTD(AF-1) plasmid (amount transfected per well of a 6-well microplate) for inhibition of desNTD(AF-1)-ERα [1] | luciferase reporter gene assay in HeLa cells: apparent IC50 of the ERα-NTD(AF-1) plasmid (amount transfected per well of a 6-well microplate) for the activity of 10 nM E2 on full-length ERα [2] | luciferase reporter gene assay in HeLa cells: IC50 of the ERα-NTD(AF-1) plasmid (amount transfected per well of a 6-well microplate) from the curve of the maximal activity of ERα/E2 [3] | IC50 from transfection amount vs maximal activity of ERα/E2 (full-length ERα; E2 dose-response maxima, plasmid per well of 6-well microplate, Fig 4C) | effect on transcription activity of full-length ERα (full-length ERα) | apparent IC50 for inhibition of full-length ERα (full-length ERα; residual activity of 10 nM E2, plasmid per well of 6-well microplate, Fig 4A) | mode of inhibition of full-length ERα (full-length ERα; with respect to E2) | transcription activation (response to E2) ([4]; construct expressed alone) | relative activity (% of wild-type full-length ERα) ([4]; maximal E2 activity) | reduction in E2-induced transactivation compared to desNTD(AF-1)-ERα alone (desNTD(AF-1)-ERα; ERα-NTD(AF-1): desNTD(AF-1)-ERα = 1:1, desNTD(AF-1)-ERα 250 ng/well) | apparent IC50 for inhibition of desNTD(AF-1)-ERα (desNTD(AF-1)-ERα; plasmid amount per well of 6-well microplate used for transfection) | reduction in E2-induced transactivation compared to desNTD(AF-1)-ERα alone (desNTD(AF-1)-ERα; ratio 2:1) | reduction in E2-induced transactivation compared to desNTD(AF-1)-ERα alone (desNTD(AF-1)-ERα; ratio 3:1) | reduction in E2-induced transactivation compared to desNTD(AF-1)-ERα alone (desNTD(AF-1)-ERα; ratio 4:1) | reduction in E2-induced transactivation compared to desNTD(AF-1)-ERα alone (desNTD(AF-1)-ERα; ratio 5:1) | reduction in E2-induced transactivation compared to desNTD(AF-1)-ERα alone (desNTD(AF-1)-ERα; ratio 6:1)
ERα-NTD(AF-1), untethered free N-terminal fragment of estrogen receptor alpha (residues 1-180), non-tagged (from UniProt P03372 1-180) (domain or fragment) | 863 ng/well | 836 ng/well | 631 ng/well |  |  |  |  |  |  |  |  |  |  |  |  | 
ERα-NTD(AF-1): ERα N-terminal fragment with amino acid residues 1–180, expressed from plasmid ERα-NTD(AF-1)/pcDNA3.1 (protein) MTMTLHTKASGMALLHQIQGNELEPLNRPQLKIPLERPLGEVYLDSSKPAVYNYPEGAAYEFNAAAAANAQVYGQTGLPYGPGSEAAAFGSNGLGGFPPLNSVSPSPLMLLHPPPQLSPFLQPHGQQVPYYLENEPSGYTVREAGPPAFYRPNSDNRRQGGRERLASTNDKGSMAMESAK |  |  |  | 631 ng/well | reduced in a dose-dependent manner | 836 ng/well | non-competitive inhibitor | completely inactive; also recorded: completely devoid of transcription activation | 0% | ~20% | 863 ng/well | 44% | 62% | 73% | 85% | 91%
FLAG-ERα-NTD(AF-1): ERα-NTD(AF-1) tagged at the N-terminus with DYKDDDDK, a FLAG-epitope peptide (protein, left off: FLAG, N-terminal, kept) MTMTLHTKASGMALLHQIQGNELEPLNRPQLKIPLERPLGEVYLDSSKPAVYNYPEGAAYEFNAAAAANAQVYGQTGLPYGPGSEAAAFGSNGLGGFPPLNSVSPSPLMLLHPPPQLSPFLQPHGQQVPYYLENEPSGYTVREAGPPAFYRPNSDNRRQGGRERLASTNDKGSMAMESAK |  |  |  |  | inhibits full-length ERα |  |  |  |  |  |  |  |  |  |  | 
